Reference: US20250109177A1 (BROAD INSTITUTE, published 2025)
Where no end group is shown, it is not given here.

B1: MBP-SD0 (super degron SD0 fused to maltose binding protein) (designed binder, not shown: large carriers)
chain: FNVLMVHKRSHTGERPLQCEICGFTCRQKGNLLRHIKLHTGEKPFKCHLCNYACQRRDAL
notes: also called MBP-degron
B2: MBP-SD40 (minimal evolved degron SD40 fused to maltose binding protein) (designed binder, not shown: large carriers)
chain: LLLFCPICGFTCRQKGNLLRHINLHTGEKLFKYHLY
modifications: cysteine pairing not given here; also: fused to maltose binding protein, limits and linker not given here
notes: Expressed and purified from E. coli, immobilized for BLI; also called MBP-degron

Legend:
[1] = biological target: T1, DDB1·CRBN precomplexed with pomalidomide (human, UniProt Q96SW2 1-442; Q16531 1-1140); experiment: BLI, immobilized MBP-degron, DDB1·CRBN precomplexed with pomalidomide
T1 construct: also called CRBN·pomalidomide
T1 sequence (Q96SW2 whole entry, chain 1 of 2): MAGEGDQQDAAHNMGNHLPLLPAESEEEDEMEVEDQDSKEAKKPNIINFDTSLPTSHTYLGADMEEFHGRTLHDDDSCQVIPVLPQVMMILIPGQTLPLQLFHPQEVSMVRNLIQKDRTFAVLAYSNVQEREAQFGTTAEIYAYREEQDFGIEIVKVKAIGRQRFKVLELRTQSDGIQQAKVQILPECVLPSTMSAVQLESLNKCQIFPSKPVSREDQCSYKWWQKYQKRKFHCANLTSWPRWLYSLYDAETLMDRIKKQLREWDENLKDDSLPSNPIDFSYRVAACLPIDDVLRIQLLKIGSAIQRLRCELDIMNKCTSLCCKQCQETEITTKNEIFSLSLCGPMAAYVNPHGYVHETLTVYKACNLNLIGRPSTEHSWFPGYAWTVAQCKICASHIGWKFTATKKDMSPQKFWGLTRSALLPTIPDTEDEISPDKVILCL
T1 sequence (Q16531 whole entry, chain 2 of 2): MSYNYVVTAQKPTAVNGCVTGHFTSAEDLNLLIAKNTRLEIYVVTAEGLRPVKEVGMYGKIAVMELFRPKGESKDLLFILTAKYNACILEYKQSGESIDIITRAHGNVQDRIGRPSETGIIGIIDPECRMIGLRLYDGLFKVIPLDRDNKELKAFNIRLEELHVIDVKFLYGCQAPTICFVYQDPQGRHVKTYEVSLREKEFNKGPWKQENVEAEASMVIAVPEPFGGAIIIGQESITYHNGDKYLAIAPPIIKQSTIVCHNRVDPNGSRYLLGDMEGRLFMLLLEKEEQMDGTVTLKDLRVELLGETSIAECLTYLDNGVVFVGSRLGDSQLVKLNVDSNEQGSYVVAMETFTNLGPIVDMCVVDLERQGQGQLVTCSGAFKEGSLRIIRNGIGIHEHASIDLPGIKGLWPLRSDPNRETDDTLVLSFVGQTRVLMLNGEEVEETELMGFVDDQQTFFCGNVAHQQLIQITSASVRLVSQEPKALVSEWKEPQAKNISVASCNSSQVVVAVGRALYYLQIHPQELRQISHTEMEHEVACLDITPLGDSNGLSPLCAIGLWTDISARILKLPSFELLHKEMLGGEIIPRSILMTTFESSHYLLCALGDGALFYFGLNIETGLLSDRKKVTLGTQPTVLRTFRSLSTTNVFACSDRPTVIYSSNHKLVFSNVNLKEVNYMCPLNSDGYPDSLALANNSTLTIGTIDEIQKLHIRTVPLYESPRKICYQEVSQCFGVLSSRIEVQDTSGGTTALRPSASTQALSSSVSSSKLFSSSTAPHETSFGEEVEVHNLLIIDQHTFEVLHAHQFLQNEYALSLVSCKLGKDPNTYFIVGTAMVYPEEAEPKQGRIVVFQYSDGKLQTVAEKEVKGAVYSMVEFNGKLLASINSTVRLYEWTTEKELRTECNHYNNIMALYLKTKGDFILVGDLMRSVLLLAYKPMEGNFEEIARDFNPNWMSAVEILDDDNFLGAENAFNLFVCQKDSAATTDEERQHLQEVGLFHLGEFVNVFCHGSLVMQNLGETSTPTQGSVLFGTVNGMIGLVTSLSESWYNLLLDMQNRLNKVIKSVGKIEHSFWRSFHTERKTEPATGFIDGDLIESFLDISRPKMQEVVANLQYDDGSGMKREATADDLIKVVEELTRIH

[2] = biological target: T1, DDB1·CRBN precomplexed with pomalidomide; experiment: bio-layer interferometry, immobilized MBP-degron, DDB1·CRBN precomplexed with pomalidomide
[3] = biological target: T2, DDB1·CRBN precomplexed with PT-179 (human, UniProt Q96SW2 1-442; Q16531 1-1140); experiment: BLI, immobilized MBP-degron; ratio of the KD values
T2 sequence (Q96SW2 whole entry, chain 1 of 2): as the sequence (Q96SW2 whole entry, chain 1 of 2) above
T2 sequence (Q16531 whole entry, chain 2 of 2): as the sequence (Q16531 whole entry, chain 2 of 2) above

[4] = biological target: T2, DDB1·CRBN precomplexed with PT-179; experiment: BLI, immobilized MBP-degron, DDB1·CRBN precomplexed with PT-179
[5] = biological target: T2, DDB1·CRBN precomplexed with PT-179; experiment: bio-layer interferometry, immobilized MBP-degron, DDB1·CRBN precomplexed with PT-179

| Binder | Kd [1] [µM] | koff [2] [s⁻¹] | kon [2] [M⁻¹ s⁻¹] | fold preference for CRBN precomplexed with PT-179 over CRBN precomplexed with pomalidomide [3] [fold] | Kd [4] [µM] | koff [5] [s⁻¹] | kon [5] [M⁻¹ s⁻¹] |
| --- | --- | --- | --- | --- | --- | --- | --- |
| B1 | 0.217 | 0.0509 | 235000 |  |  |  |  |
| B2 | 0.295 | 0.0161 | 54600 | 2.4 | 0.123 | 0.00528 | 42900 |
